Biological target: FKBP12-rapamycin binding domain of mTOR (FRB)

bioluminescence of the single-chain molecular strain probe F-R86SG-F (FRB-RLuc86SG-FKBP) in COS-7 cells, 10^-6 M rapamycin for 5 h against vehicle (0.1% DMSO), substrate K5; fold intensity: 1.6 fold
bioluminescence of the single-chain molecular strain probe F-R86SG-F (FRB-RLuc86SG-FKBP) in COS-7 cells, 10^-6 M rapamycin for 5 h against vehicle (0.1% DMSO), substrate K6; fold intensity: 3.1 fold
Substance: FK506 binding protein (FKBP) (from UniProt P62942 1-108) (natural protein)

From publication PMC9581999
